Results on 18 sequences are retold here after patent publication US20140304853.

Common to all, as to test: cell_activity
For one data set, the system named is ZFN 34480 (synthetic). The settings on record: pair 34480/34481, A-genome; B 11946, D 11790; wheat protoplasts.
The subject of another data set is ZFN 34457 (synthetic). The settings on record: pair 34456/34457, A-genome; B 1716, D 10399; wheat protoplasts.
The next data set relates to ZFN 34472 (synthetic). The settings on record: pair 34472/34473, A-genome; B 100300, D 87770; wheat protoplasts.
For another data set, the system named is ZFN 29730 (synthetic). Particulars: pair 29732/29730, D-genome, donor pDAS000152 10:1, SEC protoplasts; A 6717, B 6306.
In a further data set the test system is ZFN 34474 (synthetic). Particulars: pair 34474/34475, A-genome; B 251142, D 202711; wheat protoplasts.
A further data set concerns ZFN 34483 (synthetic). Particulars: pair 34482/34483, A-genome; B 33888, D 28719; wheat protoplasts.
In the next data set the test system is ZFN 34481 (synthetic). The settings on record: pair 34480/34481, A-genome; B 11946, D 11790; wheat protoplasts.
The test system of another data set is ZFN 34477 (synthetic). The settings on record: pair 34476/34477, A-genome; B 56001, D 44459; wheat protoplasts.
The subject of a further data set is ZFN 34482 (synthetic). Particulars: pair 34482/34483, A-genome; B 33888, D 28719; wheat protoplasts.
Another data set concerns ZFN 34471 (synthetic). The settings on record: pair 34470/34471, A-genome; B 156139, D 134694; wheat protoplasts.
In the next data set the test system is ZFN 34456 (synthetic). The settings on record: pair 34456/34457, A-genome; B 1716, D 10399; wheat protoplasts.
The next data set concerns ZFN 29732 (synthetic). Particulars: pair 29732/29730, D-genome, donor pDAS000152 10:1, SEC protoplasts; A 6717, B 6306.
In a further data set the test system is ZFN 34476 (synthetic). Particulars: pair 34476/34477, A-genome; B 56001, D 44459; wheat protoplasts.
In a further data set the test system is ZFN 34473 (synthetic). The settings on record: pair 34472/34473, A-genome; B 100300, D 87770; wheat protoplasts.
The test system of the next data set is ZFN 34470 (synthetic). Particulars: pair 34470/34471, A-genome; B 156139, D 134694; wheat protoplasts.
For the next data set, the system named is ZFN 34478 (synthetic). Particulars: pair 34478/34479, A-genome; B 2731, D 3069; wheat protoplasts.
The subject of the next data set is ZFN 34475 (synthetic). Particulars: pair 34474/34475, A-genome; B 251142, D 202711; wheat protoplasts.
The next data set relates to ZFN 34479 (synthetic). The settings on record: pair 34478/34479, A-genome; B 2731, D 3069; wheat protoplasts.

In the data set on ZFN 34480 (synthetic), “ACCATGGGGATGGAGTCGAGGAGNGCGT (double strand) [34480 site]” returned an activity (NHEJ events per million reads) of 11800.
The sequence “ACCTCCCCCGCCGTCGCATTCTCNGGCG (double strand) [34457 site]” gave an activity (NHEJ events per million reads) in the data set on ZFN 34457 (synthetic) of 12600.
“ACGCCGACGCGGCCGGACGCGCGGGCGT (double strand) [34472 site]”: in the data set on ZFN 34472 (synthetic), the activity (NHEJ events per million reads) turned out to be 120000.
“AGGCAGCACGTGCTCCTGATGCGGGACT (double strand) [29730 site]” showed an activity (ppm NHEJ editing) in the data set with ZFN 29730 (synthetic) of 7910.
“CAGACGCCGACGCGGCCGGACGCGCGGG (double strand) [34474 site]” gave an activity (NHEJ events per million reads) with ZFN 34474 (synthetic) of 248000.
For “CATCACGGGCCAGGTCCCCCGCCGCATG (double strand) [34483 site]”, the activity (NHEJ events per million reads) in the data set on ZFN 34483 (synthetic) is 28700.
“CCATCACGGGCCAGGTCCCCCGCCGCAT (double strand) [34481 site]” showed an activity (NHEJ events per million reads) in the data set on ZFN 34481 (synthetic) of 11800.
Sequence “CCTCCGGCCCGGGGGCCACCAACCTCGT (double strand) [34477 site]” gave an activity (NHEJ events per million reads) in the data set on ZFN 34477 (synthetic) of 48300.
The sequence “CGACCATGGGGATGGAGTCGAGGAGNGC (double strand) [34482 site]” came in with an activity (NHEJ events per million reads) in the data set with ZFN 34482 (synthetic) of 28700.
In the data set with ZFN 34471 (synthetic), “CGTCGGCGTCTGCGTCGCCACCTCCGGC (double strand) [34471 site]” gave an activity (NHEJ events per million reads) of 178000.
With “CNGCGGCCATGGCGGCGGCGAGGGTTTG (double strand) [34456 site]”, the activity (NHEJ events per million reads) in the data set with ZFN 34456 (synthetic) was found to be 12600.
“GATCCCAAGCGGTGGTGCTTTCAAGGAC (double strand) [29732 site]” had an activity (ppm NHEJ editing) in the data set with ZFN 29732 (synthetic) of 7910.
On to “GCGACGCAGACGCCGACGCGGCCGGACG (double strand) [34476 site]”, for which the activity (NHEJ events per million reads) in the data set on ZFN 34476 (synthetic) stood at 48300.
In the case of “GCGTCGCCACCTCCGGCCCGGGGGCCAC (double strand) [34473 site]”, the activity (NHEJ events per million reads) in the data set with ZFN 34473 (synthetic) came to 120000.
Turning to “GGCCGGACGCGCGGGCGTANCCGGACGC (double strand) [34470 site]”, the activity (NHEJ events per million reads) in the data set on ZFN 34470 (synthetic) amounted to 178000.
In the data set on ZFN 34478 (synthetic), “GGGATGGAGTCGAGGAGNGCGTCNGCGA (double strand) [34478 site]” registered an activity (NHEJ events per million reads) of 3070.
Consider “GTCGCCACCTCCGGCCCGGGGGCCACCA (double strand) [34475 site]”, for which the activity (NHEJ events per million reads) in the data set with ZFN 34475 (synthetic) turned out to be 248000.
Sequence “TGGTCGCCATCACGGGCCAGGTCCCCCG (double strand) [34479 site]” had an activity (NHEJ events per million reads) in the data set on ZFN 34479 (synthetic) of 3070.
